Experimental data taken from patent EP4751739A1, “ANTIBODY-DRUG CONJUGATE TARGETING C-MET AND MEDICAL USE THEREOF” (Jiangsu Hengrui Pharmaceuticals Co., Ltd., priority 2023, dated 2025).

Experiments:
[1] = test system: human lung cancer EBC-1 cells; assay: Endocytosis by c-Met-positive cells (flow cytometry); type: cell-based; details: 20 nM
Procedure: Teli-VcMMAE (namely ABBV-399, in which the toxin is MMAE) and its naked antibody ABT-700 were prepared in-house based on the telisotuzumab vedotin structure disclosed on page 319 of WHO Drug Information, Vol. 30, No. 2, 2016.
The cell density was adjusted to 2 × 10^6 cells/mL using a FACS buffer (prepared with PBS 1×, pH 7.2, and 2% FBS). The suspension was added to a 96-well round-bottom plate at 50 µL/well. Groups were set as follows: endocytosis for 0 h, endocytosis for 0.5 h, endocytosis for 2 h, endocytosis for 4 h, and endocytosis for 24 h. A 40 nM (2×) dilution of an antibody or antibody-drug conjugate was added at 50 µL/well. […] A final concentration of 20 nM was achieved. The plate was incubated at 4 °C for 60 min. After the incubation, the plate was centrifuged at 400 g for 5 min, the supernatant was discarded, and the plate was washed twice with 200 µL of FACS Buffer per well. The cells were resuspended in a culture medium and subjected to 0 h, 0.5 h, 2 h, 4 h, or 24 h of endocytosis in an incubator (37 °C, 5% CO2). After different endocytosis periods, the cells were digested with TrypLE™ Express Enzyme to form a single cell suspension. After 1 wash with 200 µL of FACS buffer, a secondary antibody (Alexa Fluor® 647 AffiniPure Mouse Anti-Human IgG(H+L), 1:500, Jackson, 209-605-008) diluted in FACS buffer was added, and the plate was incubated in a dark place at 4 °C for 30 min. The plate was centrifuged at 400 g for 5 min, the supernatant was discarded, and the plate was washed twice with 200 µL of FACS buffer per well. The cells were resuspended in 50 µL of FACS buffer, and 50 µL of 4% paraformaldehyde was then added for fixation. After thorough mixing, the plate was left to stand at 4 °C in a dark place. After all samples were collected, Alexa Fluor® 647 fluorescence signals were detected using a flow cytometer. Data were analyzed using Flowjo software, and gMFI values were calculated. Endocytosis ratio = (0-h endocytosis gMFI - n-h endocytosis gMFI)/0-h endocytosis gMFI. Table 4. Evaluation of endocytosis performance

[2] = test system: human gastric cancer MKN-45 nude mouse subcutaneous xenograft tumor model; assay: In vivo efficacy, MKN-45 xenograft tumor model; set-up: species or system Balb/c Nude mice; details: 3 mg/kg single i.p. (D0)
Procedure: Female Balb/c Nude mice were subcutaneously inoculated with 5 × 10^6 MKN-45 cells to establish a subcutaneous tumor model. […] Each group was given a single (D0) intraperitoneal injection. The body weight and tumor size of the animals were measured twice weekly during the experiment.

B1: Teli-VcMMAE: ABBV-399, in which the toxin is MMAE; prepared in-house based on the telisotuzumab vedotin structure (conjugate, chains of the INN, looked up)
VH: QVQLVQSGAEVKKPGASVKVSCKASGYIFTAYTMHWVRQAPGQGLEWMGWIKPNNGLANYAQKFQGRVTMTRDTSISTAYMELSRLRSDDTAVYYCARSEITTEFDYWGQGTLVTVSS
VL: DIVMTQSPDSLAVSLGERATINCKSSESVDSYANSFLHWYQQKPGQPPKLLIYRASTRESGVPDRFSGSGSGTDFTLTISSLQAEDVAVYYCQQSKEDPLTFGGGTKVEIK
modifications: vc-MMAE payload
notes: ABBV-399, in which the toxin is MMAE; prepared in-house based on the telisotuzumab vedotin structure
Question: With B1 as the molecule, how does the Endocytosis ratio% ([1]; 0 h) read?
Answer: 0.000%

Question: What about the Endocytosis ratio% ([1]; 0.5 h) of the same molecule?
Answer: 4.361%

Question: And the Endocytosis ratio% ([1]; 2 h)?
Answer: 31.734%

Question: And the Endocytosis ratio% ([1]; 24 h)?
Answer: 97.339%

Question: What about the “Mean tumor volume (mm^3, mean ± SEM) D0” value ([2]; D0 (baseline at grouping)) of the same molecule?
Answer: 117± 3 mm^3

Question: And the “Mean tumor volume (mm^3, mean ± SEM) D23” value ([2]; D23)?
Answer: 1354 ± 327 mm^3

Question: And the “TGI (%) D23” value ([2]; D23)?
Answer: 40.28%
